Experiment [1] has as its target BCRZFP-orfA fusion protein (walleye dermal sarcoma virus orfA protein fused to the BCR-ABL zinc finger protein) (walleye dermal sarcoma virus (WDSV)). Briefly: two-hybrid; ZFN-Y2H, LacZ reporter: relative β-galactosidase activity (ONPG assay) of colonies in liquid medium, wild-type Gal4 (pADH-Gal4) set to 100%.
For experiment [2] the target is unchanged. Briefly: two-hybrid; ZFN-Y2H: bait fused to BCR-ZFP, prey fused to FokI, co-transformed into AH109 carrying the reporter pADH-Gal4-BS; growth on SD plates lacking histidine and adenine, 30°C, at least three days; colonies counted against non-selective plates; spotting of dilutions.

FokI-E2F5 fusion protein (human E2F5 fused to the FokI nuclease domain) (natural protein), sequence (Q15329 whole entry, the tested form may be a part): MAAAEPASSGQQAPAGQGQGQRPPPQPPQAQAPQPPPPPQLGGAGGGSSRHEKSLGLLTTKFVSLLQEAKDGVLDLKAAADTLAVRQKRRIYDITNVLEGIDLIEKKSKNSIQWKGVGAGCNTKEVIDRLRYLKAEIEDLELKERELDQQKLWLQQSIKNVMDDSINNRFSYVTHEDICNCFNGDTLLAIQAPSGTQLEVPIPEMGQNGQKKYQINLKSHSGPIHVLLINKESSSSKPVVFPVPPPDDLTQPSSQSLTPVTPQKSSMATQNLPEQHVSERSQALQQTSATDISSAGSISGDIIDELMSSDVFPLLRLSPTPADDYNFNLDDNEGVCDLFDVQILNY
BCRZFP-orfA fusion protein (walleye dermal sarcoma virus orfA protein fused to the BCR-ABL zinc finger protein) (walleye dermal sarcoma virus (WDSV)), sequence (Q88939 whole entry, the tested form may be a part): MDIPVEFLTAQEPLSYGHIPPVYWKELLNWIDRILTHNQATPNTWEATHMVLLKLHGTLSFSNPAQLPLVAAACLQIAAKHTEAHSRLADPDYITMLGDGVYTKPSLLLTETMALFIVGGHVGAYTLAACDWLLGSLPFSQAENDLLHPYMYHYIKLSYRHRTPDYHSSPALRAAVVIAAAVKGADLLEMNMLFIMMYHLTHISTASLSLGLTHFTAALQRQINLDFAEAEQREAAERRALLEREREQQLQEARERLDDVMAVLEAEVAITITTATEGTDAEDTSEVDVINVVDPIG

Turning to “FokI-E2F5 fusion protein (human E2F5 fused to the FokI nuclease domain) (natural protein)”, in experiment [1], the relative β-galactosidase activity worked out at 84.3%. The percent of transformants surviving on selective medium in experiment [2] came out at 22.5%.

Source of the values: article PMC3877365.
